The target of one assay is T1, APC4100-AA.
T1 chain: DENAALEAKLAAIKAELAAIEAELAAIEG
In words: two-hybrid library CCmax.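 Also: natural log of median RNA to DNA barcode read ratio; higher means stronger binding.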 To be noted: mean of both orientations.

Another assay addresses T2, APC7524-AA.
T2 chain: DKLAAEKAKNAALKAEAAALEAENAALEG
In words: two-hybrid library CCmax.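 Also: natural log of median RNA to DNA barcode read ratio; higher means stronger binding.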 Particulars: mean of both orientations.

The next assay addresses T3, APC3354-AA.
T3 chain: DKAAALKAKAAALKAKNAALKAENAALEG
The assay can be described thus: two-hybrid library CCmax.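 Also: natural log of median RNA to DNA barcode read ratio; higher means stronger binding.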

The target in another assay is T4, APC9182-AA.
T4 chain: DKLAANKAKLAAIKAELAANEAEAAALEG
In words: two-hybrid library CCmax.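 Also: natural log of median RNA to DNA barcode read ratio; higher means stronger binding.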 To be noted: mean of both orientations.

In the next assay the target is T5, APC5009-AA.
T5 chain: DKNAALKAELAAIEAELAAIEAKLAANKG
In words: two-hybrid library CCmax.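 Also: natural log of median RNA to DNA barcode read ratio; higher means stronger binding.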 Particulars: mean of both orientations.

Another assay concerns the target T6, APC9291-AA.
T6 chain: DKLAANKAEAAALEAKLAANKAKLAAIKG
The assay can be described thus: two-hybrid library CCmax.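 Also: natural log of median RNA to DNA barcode read ratio; higher means stronger binding.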 To be noted: mean of both orientations.

Another assay deals with T7, APC6088-AA.
T7 chain: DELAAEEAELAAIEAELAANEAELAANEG
In words: two-hybrid library CCmax. Particulars: mean of both orientations.

The next assay concerns the target T8, APC8401-AA.
T8 chain: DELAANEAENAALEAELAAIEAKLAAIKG
The assay can be described thus: two-hybrid library CCmax. Particulars: mean of both orientations.

The next assay deals with T9, APC5531-AA.
T9 chain: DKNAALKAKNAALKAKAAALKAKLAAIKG
In words: two-hybrid library CCmax. To be noted: mean of both orientations.

The next assay addresses T10, APC9806-AA.
T10 chain: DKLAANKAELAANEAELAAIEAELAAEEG
The assay can be described thus: two-hybrid library CCmax. Particulars: mean of both orientations.

The next assay addresses T11, APC4336-AA.
T11 chain: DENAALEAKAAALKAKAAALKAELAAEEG
The assay can be described thus: two-hybrid library CCmax. Particulars: mean of both orientations.

The target of the next assay is T12, APC9141-AA.
T12 chain: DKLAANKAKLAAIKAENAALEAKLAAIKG
The assay can be described thus: two-hybrid library CCmax. To be noted: mean of both orientations.

The target of another assay is T13, APC8516-AA.
T13 chain: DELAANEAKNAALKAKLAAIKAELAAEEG
The assay can be described thus: two-hybrid library CCmax. Particulars: mean of both orientations.

The target of the next assay is T14, APC3881-AA.
T14 chain: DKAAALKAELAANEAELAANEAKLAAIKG
In words: two-hybrid library CCmax. Particulars: mean of both orientations.

The next assay addresses T15, APC542-AA.
T15 chain: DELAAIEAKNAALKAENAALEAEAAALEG
The assay can be described thus: two-hybrid library CCmax. To be noted: mean of both orientations.

The target of the next assay is T16, O9.
T16 chain: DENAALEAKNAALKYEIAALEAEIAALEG
In words: two-hybrid library CCNG1.

With DKAAALKAKAAALKAKNAALKAENAALEG [APC3354-AA], the interaction score was -1.66 with APC4100-AA; -1.71 with APC7524-AA; -1.59 with APC3354-AA; -1.72 with APC9182-AA; -1.49 in the assay with APC5009-AA; -1.68 in the assay with APC9291-AA. In addition, the interaction score with APC6088-AA is -1.77; with APC8401-AA, -1.48; in the assay with APC5531-AA it was -1.92; with APC9806-AA it was -1.33; with APC4336-AA it was -2.08; with APC9141-AA, -1.68. Besides, the interaction score in the assay with APC8516-AA was -1.98; in the assay with APC3881-AA, -1.72; with APC542-AA, -1.89.
DENAALEAKNAALKYEIAALEAEIAALEG [O9] returned an interaction score with O9 of -2.24.

(Values after paper PMC10397247.)
